The experiment has as its target NIA–Isu1 complex with C. thermophilum Isu1 (S. cerevisiae | E. coli (endogenous in the expression host) | C. thermophilum) (UniProt P25374). Description: pull-down; competition: Yfh1^GST (2.5 μM) with NIA (5 μM) and Isu1Ct (7.5 μM), then Yah1 WT (increasing concentrations, 50 μM) or Yah1(DD/KK) (50 μM) added; glutathione resin; densitometry, amount without Yah1 set as 100%; buffer PD.

This passage reports percent of the control left pulled down with Yfh1^GST results from article PMC8888459.

Sequence of NIA–Isu1 complex with C. thermophilum Isu1 (S. cerevisiae | E. coli (endogenous in the expression host) | C. thermophilum) (P25374 whole entry, looked up, one chain of several): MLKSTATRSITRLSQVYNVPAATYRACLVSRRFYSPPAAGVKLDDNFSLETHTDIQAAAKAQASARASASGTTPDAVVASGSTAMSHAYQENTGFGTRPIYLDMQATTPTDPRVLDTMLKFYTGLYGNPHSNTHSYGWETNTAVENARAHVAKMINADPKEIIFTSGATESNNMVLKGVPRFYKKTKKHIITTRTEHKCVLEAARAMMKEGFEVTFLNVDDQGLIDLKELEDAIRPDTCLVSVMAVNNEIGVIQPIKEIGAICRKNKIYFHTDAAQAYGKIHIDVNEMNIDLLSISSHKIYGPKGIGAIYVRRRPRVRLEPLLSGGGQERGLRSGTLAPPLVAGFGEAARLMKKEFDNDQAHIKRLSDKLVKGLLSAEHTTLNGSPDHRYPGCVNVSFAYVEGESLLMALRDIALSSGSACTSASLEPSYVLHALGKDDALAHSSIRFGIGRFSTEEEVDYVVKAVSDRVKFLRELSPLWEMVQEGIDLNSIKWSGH

B1: Yah1 (untagged, holo) (natural protein)
chain: IAAHLLRTSPSLLTRTTTTTRFLPFSTSSFLNHGHLKKPKPGEELKITFILKDGSQKTYEVCEGETILDIAQGHNLDMEGACGGSCACSTCHVIVDPDYYDALPEPEDDENDMLDLAYGLTETSRLGCQIKMSKDIDGIRVALPQMTRNVNNNDFS
B1 gave a percent of the control left pulled down with Yfh1^GST at 75 μM Yah1 of 35%.
